20 molecules from article doi:10.1101/2024.11.16.623948, “Biochemical principles of miRNA targeting in flies” can be followed below.

As a reminder, the Kd is a measure of binding affinity in units of concentration.

The target in data set [1] is T1, FLAG-Ago1 (Drosophila melanogaster, UniProt A1Z9J5 1-950). Put plainly: RBNS; let-7 guide; RBNS: 20 mM HEPES-KOH pH 7.9, 100 mM KOAc, 3.5 mM Mg(OAc) (magnesium acetate), 0.05% CHAPS, 2 mM DTT, 8% glycerol, BSA, tRNA, 25 C 2 h; filter binding: 25 mM HEPES-KOH pH 7.9, 110 mM KOAc, 3.5 mM magnesium acetate, 2 mM DTT, BSA, tRNA, 8% glycerol, 25 C 2 h; competition: 18 mM HEPES-KOH pH 7.4, 100 mM KOAc, 3 mM magnesium acetate, 5 mM DTT, 0.01% IGEPAL, tRNA, 25 C 1 h. The note with it: protein: recombinant, tags: FLAG.
T1 sequence (A1Z9J5 entry or part of it): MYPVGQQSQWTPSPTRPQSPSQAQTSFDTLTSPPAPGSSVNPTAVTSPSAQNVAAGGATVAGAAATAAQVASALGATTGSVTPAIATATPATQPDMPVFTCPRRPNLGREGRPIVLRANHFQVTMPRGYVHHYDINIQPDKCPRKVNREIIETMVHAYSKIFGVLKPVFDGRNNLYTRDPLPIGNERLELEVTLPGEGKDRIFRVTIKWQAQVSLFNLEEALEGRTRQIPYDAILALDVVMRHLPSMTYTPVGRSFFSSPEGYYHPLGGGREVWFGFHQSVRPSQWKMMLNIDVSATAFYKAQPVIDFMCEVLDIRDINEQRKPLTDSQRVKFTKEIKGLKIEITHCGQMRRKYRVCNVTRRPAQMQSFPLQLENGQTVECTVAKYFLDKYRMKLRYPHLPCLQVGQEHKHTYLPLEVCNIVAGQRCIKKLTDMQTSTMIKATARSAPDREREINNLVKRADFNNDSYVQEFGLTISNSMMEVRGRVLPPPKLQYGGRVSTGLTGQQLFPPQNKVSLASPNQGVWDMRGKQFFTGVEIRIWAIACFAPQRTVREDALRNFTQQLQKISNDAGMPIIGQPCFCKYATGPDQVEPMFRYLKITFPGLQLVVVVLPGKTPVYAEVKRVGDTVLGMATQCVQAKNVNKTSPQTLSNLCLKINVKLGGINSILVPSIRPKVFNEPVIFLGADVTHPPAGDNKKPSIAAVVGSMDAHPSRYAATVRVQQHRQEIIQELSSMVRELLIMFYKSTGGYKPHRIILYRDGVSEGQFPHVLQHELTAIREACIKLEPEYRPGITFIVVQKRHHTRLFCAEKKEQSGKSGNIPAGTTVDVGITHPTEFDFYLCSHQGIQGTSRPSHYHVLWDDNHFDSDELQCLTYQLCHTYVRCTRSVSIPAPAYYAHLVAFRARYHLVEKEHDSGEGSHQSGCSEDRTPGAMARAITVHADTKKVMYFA

Data set [2] has as its target T1, FLAG-Ago1. Put plainly: RBNS; bantam guide; RBNS: 20 mM HEPES-KOH pH 7.9, 100 mM KOAc, 3.5 mM Mg(OAc) (magnesium acetate), 0.05% CHAPS, 2 mM DTT, 8% glycerol, BSA, tRNA, 25 C 2 h; filter binding: 25 mM HEPES-KOH pH 7.9, 110 mM KOAc, 3.5 mM magnesium acetate, 2 mM DTT, BSA, tRNA, 8% glycerol, 25 C 2 h; competition: 18 mM HEPES-KOH pH 7.4, 100 mM KOAc, 3 mM magnesium acetate, 5 mM DTT, 0.01% IGEPAL, tRNA, 25 C 1 h. As to conditions: protein: recombinant, tags: FLAG.

In data set [3] the target is T1, FLAG-Ago1. Put plainly: RBNS; miR-184 guide; RBNS: 20 mM HEPES-KOH pH 7.9, 100 mM KOAc, 3.5 mM Mg(OAc) (magnesium acetate), 0.05% CHAPS, 2 mM DTT, 8% glycerol, BSA, tRNA, 25 C 2 h; filter binding: 25 mM HEPES-KOH pH 7.9, 110 mM KOAc, 3.5 mM magnesium acetate, 2 mM DTT, BSA, tRNA, 8% glycerol, 25 C 2 h; competition: 18 mM HEPES-KOH pH 7.4, 100 mM KOAc, 3 mM magnesium acetate, 5 mM DTT, 0.01% IGEPAL, tRNA, 25 C 1 h. The note with it: protein: recombinant, tags: FLAG.

In data set [4] the target is T1, FLAG-Ago1. In words: RBNS; miR-11 guide; RBNS: 20 mM HEPES-KOH pH 7.9, 100 mM KOAc, 3.5 mM Mg(OAc) (magnesium acetate), 0.05% CHAPS, 2 mM DTT, 8% glycerol, BSA, tRNA, 25 C 2 h; filter binding: 25 mM HEPES-KOH pH 7.9, 110 mM KOAc, 3.5 mM magnesium acetate, 2 mM DTT, BSA, tRNA, 8% glycerol, 25 C 2 h; competition: 18 mM HEPES-KOH pH 7.4, 100 mM KOAc, 3 mM magnesium acetate, 5 mM DTT, 0.01% IGEPAL, tRNA, 25 C 1 h. The note with it: protein: recombinant, tags: FLAG.

Data set [5] has as its target T2, Ago1 (RISC assembled in embryo lysate) (Drosophila melanogaster, UniProt A1Z9J5 1-950). Put plainly: competition; let-7 guide (text: 110-fold); RBNS: 20 mM HEPES-KOH pH 7.9, 100 mM KOAc, 3.5 mM Mg(OAc) (magnesium acetate), 0.05% CHAPS, 2 mM DTT, 8% glycerol, BSA, tRNA, 25 C 2 h; filter binding: 25 mM HEPES-KOH pH 7.9, 110 mM KOAc, 3.5 mM magnesium acetate, 2 mM DTT, BSA, tRNA, 8% glycerol, 25 C 2 h; competition: 18 mM HEPES-KOH pH 7.4, 100 mM KOAc, 3 mM magnesium acetate, 5 mM DTT, 0.01% IGEPAL, tRNA, 25 C 1 h. As to conditions: protein: native; g2-g21, G:U at g4 and g5.

The target of data set [6] is T1, FLAG-Ago1. In words: RBNS; miR-11 guide; bulge site analysis; RBNS: 20 mM HEPES-KOH pH 7.9, 100 mM KOAc, 3.5 mM Mg(OAc) (magnesium acetate), 0.05% CHAPS, 2 mM DTT, 8% glycerol, BSA, tRNA, 25 C 2 h; filter binding: 25 mM HEPES-KOH pH 7.9, 110 mM KOAc, 3.5 mM magnesium acetate, 2 mM DTT, BSA, tRNA, 8% glycerol, 25 C 2 h; competition: 18 mM HEPES-KOH pH 7.4, 100 mM KOAc, 3 mM magnesium acetate, 5 mM DTT, 0.01% IGEPAL, tRNA, 25 C 1 h. As to conditions: protein: recombinant; tags: FLAG; g2-g7 + t1A.

Data set [7] deals with T1, FLAG-Ago1. In words: RBNS; miR-11 guide; G:U site analysis; RBNS: 20 mM HEPES-KOH pH 7.9, 100 mM KOAc, 3.5 mM Mg(OAc) (magnesium acetate), 0.05% CHAPS, 2 mM DTT, 8% glycerol, BSA, tRNA, 25 C 2 h; filter binding: 25 mM HEPES-KOH pH 7.9, 110 mM KOAc, 3.5 mM magnesium acetate, 2 mM DTT, BSA, tRNA, 8% glycerol, 25 C 2 h; competition: 18 mM HEPES-KOH pH 7.4, 100 mM KOAc, 3 mM magnesium acetate, 5 mM DTT, 0.01% IGEPAL, tRNA, 25 C 1 h. The note with it: protein: recombinant; tags: FLAG; g2-g7 + t1A.

Data set [8] has as its target T2, Ago1 (RISC assembled in embryo lysate). In words: competition; let-7 guide; nearly same affinity as fully complementary; RBNS: 20 mM HEPES-KOH pH 7.9, 100 mM KOAc, 3.5 mM Mg(OAc) (magnesium acetate), 0.05% CHAPS, 2 mM DTT, 8% glycerol, BSA, tRNA, 25 C 2 h; filter binding: 25 mM HEPES-KOH pH 7.9, 110 mM KOAc, 3.5 mM magnesium acetate, 2 mM DTT, BSA, tRNA, 8% glycerol, 25 C 2 h; competition: 18 mM HEPES-KOH pH 7.4, 100 mM KOAc, 3 mM magnesium acetate, 5 mM DTT, 0.01% …. As to conditions: protein: native; g2-g21, G:U at g4.

T2 sequence (A1Z9J5 entry or part of it): as above

B1: let-7 / 7mer-A1 (dsRNA)
RNA 1: UGAGGUAGUAGGUUGUAUAGU
RNA 2: UACCUCA
modifications: guide 5' phosphate
With B1, in the data set with FLAG-Ago1 [1] (g2-g7 + t1A), the Kd was determined as 0.0221 nM.

B2: bantam / 7mer-m8,w2 (dsRNA)
RNA 1: UGAGAUCAUUUUGAAAGCUGAUU
RNA 2: UGAUCUU
modifications: guide 5' phosphate
For the molecule B2, the Kd with FLAG-Ago1 [2] (G:U at g2) amounted to 0.866 nM.

B3: miR-184 / 6mer-m8 (dsRNA)
RNA 1: UGGACGGAGAACUGAUAAGGGC
RNA 2: UCCGUC
modifications: guide 5' phosphate
Regarding B3, in the data set with FLAG-Ago1 [3] (g3-g8), the Kd is 0.321 nM.

B4: miR-11 / 8mer-w8 (dsRNA)
RNA 1: CAUCACAGUCUGAGUUCUUGC
RNA 2: UUGUGAUA
modifications: guide 5' phosphate
As for B4, the Kd with FLAG-Ago1 [4] (G:U at g8) is 0.0612 nM.

B5: let-7 / competitor G:U at g4-g5 (dsRNA)
RNA 1: UGAGGUAGUAGGUUGUAUAGU
RNA 2: GAUACUAUACAACCUACUAUUUCAACCU
modifications: 2'-O-methyl and phosphorothioate at t10-t11
Take B5: the binding signal in data set [5] was 120 ± 20 fold Kd vs fully complementary.

B6: let-7 / 7mer-m8,w2 (dsRNA)
RNA 1: UGAGGUAGUAGGUUGUAUAGU
RNA 2: CUACCUU
modifications: guide 5' phosphate
For the molecule B6, in the data set with FLAG-Ago1 [1] (G:U at g2), the Kd is 0.278 nM.

B7: miR-184 / 7mer-A1 (dsRNA)
RNA 1: UGGACGGAGAACUGAUAAGGGC
RNA 2: CCGUCCA
modifications: guide 5' phosphate
Take B7: in the data set with FLAG-Ago1 [3] (g2-g7 + t1A), the Kd came to 0.037 nM.

B8: miR-11 / 7mer-A1 (dsRNA)
RNA 1: CAUCACAGUCUGAGUUCUUGC
RNA 2: UGUGAUA
modifications: guide 5' phosphate
For B8, the values for the Kd in the data set with FLAG-Ago1 [6] and in the data set with FLAG-Ago1 [7] were 0.07 nM and 0.0812 nM, respectively.

B9: let-7 / 8mer (dsRNA)
RNA 1: UGAGGUAGUAGGUUGUAUAGU
RNA 2: CUACCUCA
modifications: guide 5' phosphate
Take B9: the Kd with FLAG-Ago1 [1] (guide g2-g8 + t1A, site in 20-nt random RBNS library) turned out to be 0.00173 nM.

B10: let-7 / 8mer-w8 (dsRNA)
RNA 1: UGAGGUAGUAGGUUGUAUAGU
RNA 2: UUACCUCA
modifications: guide 5' phosphate
Regarding B10, the Kd with FLAG-Ago1 [1] (G:U at g8) was 0.0154 nM.

B11: bantam / 8mer (dsRNA)
RNA 1: UGAGAUCAUUUUGAAAGCUGAUU
RNA 2: UGAUCUCA
modifications: guide 5' phosphate
As for B11, the Kd with FLAG-Ago1 [2] (g2-g8 + t1A) stood at 0.0189 nM.

B12: miR-11 / 8mer-b5.6G (dsRNA)
RNA 1: CAUCACAGUCUGAGUUCUUGC
RNA 2: CUGGUGAUA
modifications: guide 5' phosphate
With B12, the Kd in the data set with FLAG-Ago1 [4] (nucleation bulge G between t5 and t6) was found to be 0.107 nM.

B13: let-7 / competitor G:U at g4 (dsRNA)
RNA 1: UGAGGUAGUAGGUUGUAUAGU
RNA 2: GAUACUAUACAACCUACUACUUCAACCU
modifications: 2'-O-methyl and phosphorothioate at t10-t11
B13: in data set [8], the binding result is recorded as “binds”.

B14: miR-184 / 8mer-x4C (dsRNA)
RNA 1: UGGACGGAGAACUGAUAAGGGC
RNA 2: UCCGCCCA
modifications: guide 5' phosphate
Regarding B14, in the data set with FLAG-Ago1 [3] (mismatch at t4), the Kd is roughly 0.13 nM.

B15: let-7 / 6mer-m8 (dsRNA)
RNA 1: UGAGGUAGUAGGUUGUAUAGU
RNA 2: CUACCU
modifications: guide 5' phosphate
Turning to B15, the Kd with FLAG-Ago1 [1] (g3-g8) came out at 0.328 nM.

B16: let-7 / 6mer-A1 (dsRNA)
RNA 1: UGAGGUAGUAGGUUGUAUAGU
RNA 2: ACCUCA
modifications: guide 5' phosphate
In the case of B16, in the data set with FLAG-Ago1 [1] (g2-g6 + t1A), the Kd worked out at 0.092 nM.

B17: miR-184 / 8mer-b5.6C (printed b5.6CA) (dsRNA)
RNA 1: UGGACGGAGAACUGAUAAGGGC
RNA 2: UCCCGUCCA
modifications: guide 5' phosphate
With B17, in the data set with FLAG-Ago1 [3] (nucleation bulge C between t5 and t6), the Kd came to 0.038 nM.

B18: let-7 / 8mer-b5.6A (dsRNA)
RNA 1: UGAGGUAGUAGGUUGUAUAGU
RNA 2: CUAACCUCA
modifications: guide 5' phosphate
Regarding B18, the Kd with FLAG-Ago1 [1] (nucleation bulge A between t5 and t6) turned out to be 0.12 nM.

B19: bantam / 6mer-m8 (dsRNA)
RNA 1: UGAGAUCAUUUUGAAAGCUGAUU
RNA 2: UGAUCU
modifications: guide 5' phosphate
In the case of B19, in the data set with FLAG-Ago1 [2] (g3-g8), the Kd was found to be 1.01 nM.

B20: miR-184 / 7mer-m8,w2 (dsRNA)
RNA 1: UGGACGGAGAACUGAUAAGGGC
RNA 2: UCCGUCU
modifications: guide 5' phosphate
With B20, the Kd with FLAG-Ago1 [3] (G:U at g2) amounted to 0.154 nM.
